Data on four molecules can be found in patent publication US20250375530A1, “ROR1/EGFR BI-SPECIFIC ANTIGEN BINDING MOLECULES” (ALMAC DISCOVERY LIMITED, priority 2022, published 2025).

This data set can be described thus: Analytical SEC of P3A1 loop variants (Superdex 75 increase 10/300 GL, PBS pH 7.4). In kind it is physicochemical. Here is the method: Chromatography was carried out in PBS pH 7.4.

B1: P3A1 G1: humanised version of the ROR1 binding VNAR P3A1, SEQ ID NO: 114 (protein)
chain: TRVDQTPSSLSASVGDRVTITCVLTDTSYGLYSTYWYRKNPGSSNKEQISISGRYSESVNKGTKSFTLTISSLQPEDSATYYCRAREARHPWLRQWYDGAGTKVEIKQASGAHHHHHHGAEFEQKLISEEDL
Regarding B1, the “% monomer by SEC” value was 100% and the “SEC elution volume” value is 15.47 mL.

B2: P3A1 G1 AE3: P3A1 G1 loop variant VNAR, SEQ ID NO: 77 (protein)
chain: TRVDQSPSSLSASVGDRVTITCVLTGTRYGLYSTYWYRKNPGSSDEERISISGRYSESVNKGTKSFTLTISSLQPEDSATYYCRAREARHPWLRQWYDGAGTKVEIKQACKAHHHHHHG
Consider B2, for which the “% monomer by SEC” value is reported as 100% and the “SEC elution volume” value was determined as 17.3 mL.

B3: P3A1 G1 NAC6: P3A1 G1 loop variant VNAR, SEQ ID NO: 79 (protein)
chain: TRVDQSPSSLSASVGDRVTITCVLTDTRYALYSTYWYRKNPGSTDEERISIGGRYSESVNKGSKSFTLTISSLQPEDSATYYCRAREARHPWLRQWYDGAGTKVEIKQACKAHHHHHHG
For B3, the “% monomer by SEC” value turned out to be 100% and the “SEC elution volume” value stood at 17.3 mL.

B4: P3A1 G1 NAG8: P3A1 G1 loop variant VNAR, SEQ ID NO: 81 (protein)
chain: TRVDQSPSSLSASVGDRVTITCVLTGTKYGLYATYWYRKNPGSPNKDRMIIGGRYSESVNNGTKSFTLTISSLQPEDSATYYCRAREARHPWLRQWYDGAGTKVEIKQACKAHHHHHHGAEFEQKLISEEDLG
For the molecule B4, the “% monomer by SEC” value was determined as 100% and the “SEC elution volume” value came to 14.8 mL.
